Test results taken from patent publication US20160131655A1.

Biological target: BCMA (B cell maturation antigen) protein on the cell surface of human multiple myeloma cells (human) (UniProt Q02223)
Experiment: FACS on OPM-2 cells, Alexa488-labeled antibody

UniProt Q02223, sequence (Q02223 whole entry N81S): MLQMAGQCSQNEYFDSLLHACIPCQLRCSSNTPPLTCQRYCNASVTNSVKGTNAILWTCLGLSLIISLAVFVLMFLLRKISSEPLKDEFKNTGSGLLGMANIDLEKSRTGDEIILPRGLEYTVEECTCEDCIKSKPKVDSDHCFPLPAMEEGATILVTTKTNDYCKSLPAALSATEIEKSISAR

Substance | Mean Fluorescence Signal
anti-BCMA antibody MAB193 (clone 335004, rat IgG2a, R&D Systems #MAB193) | 371
anti-BCMA antibody Vicky-1 (rat IgG1, GeneTex #GTX17323) | 609
